Reference: patent US20140120109A1 (Regeneron, published 2014)

T1: cynomolgus monkey TL1A, soluble, E. coli-expressed, residues 72-251 of SEQ ID NO:248 (cynomolgus monkey (Macaca fascicularis), UniProt O95150 72-251 (human entry))
T1 construct: with or without N-terminal Met; also called MfTL1A (E. Coli)
T1 chain: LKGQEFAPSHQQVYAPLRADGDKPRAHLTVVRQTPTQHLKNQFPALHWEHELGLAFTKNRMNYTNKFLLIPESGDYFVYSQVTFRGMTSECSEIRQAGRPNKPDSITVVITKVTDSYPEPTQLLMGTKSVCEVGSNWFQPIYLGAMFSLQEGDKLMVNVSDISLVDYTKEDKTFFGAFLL

T2: Fhm, hTL1A(Q167R), soluble, E. coli-expressed, residues 72-251 of SEQ ID NO:246 (human, UniProt O95150 72-251)
T2 construct: with or without N-terminal Met
T2 chain: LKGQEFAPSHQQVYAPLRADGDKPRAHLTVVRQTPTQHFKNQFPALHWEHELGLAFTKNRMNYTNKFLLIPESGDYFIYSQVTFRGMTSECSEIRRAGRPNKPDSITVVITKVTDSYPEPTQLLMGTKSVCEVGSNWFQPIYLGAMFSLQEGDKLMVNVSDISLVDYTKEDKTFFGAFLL

T3: full length human TL1A expressed on HEK293 cells (human, UniProt O95150 1-251)
T3 sequence: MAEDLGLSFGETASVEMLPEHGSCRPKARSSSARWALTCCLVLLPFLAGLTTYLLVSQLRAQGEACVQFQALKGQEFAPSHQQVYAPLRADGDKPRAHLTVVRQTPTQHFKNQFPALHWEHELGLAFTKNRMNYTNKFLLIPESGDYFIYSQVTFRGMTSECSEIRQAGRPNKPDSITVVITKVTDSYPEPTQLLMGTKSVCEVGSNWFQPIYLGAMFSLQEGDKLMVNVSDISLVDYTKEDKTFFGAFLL

T4: full-length Fhm, human TL1A(Q167R), expressed on HEK293 cells (human, UniProt O95150 1-251)
T4 sequence: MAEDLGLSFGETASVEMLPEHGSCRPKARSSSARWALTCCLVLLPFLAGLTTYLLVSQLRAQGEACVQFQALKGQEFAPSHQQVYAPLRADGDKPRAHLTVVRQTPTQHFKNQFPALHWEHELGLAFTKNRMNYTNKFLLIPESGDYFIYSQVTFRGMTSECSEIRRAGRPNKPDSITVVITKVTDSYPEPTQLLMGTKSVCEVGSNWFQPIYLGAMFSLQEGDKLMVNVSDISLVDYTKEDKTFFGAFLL

T5: full-length cynomolgus monkey TL1A expressed on HEK293 cells (cynomolgus monkey (Macaca fascicularis), UniProt O95150 1-251 (human entry))
T5 chain: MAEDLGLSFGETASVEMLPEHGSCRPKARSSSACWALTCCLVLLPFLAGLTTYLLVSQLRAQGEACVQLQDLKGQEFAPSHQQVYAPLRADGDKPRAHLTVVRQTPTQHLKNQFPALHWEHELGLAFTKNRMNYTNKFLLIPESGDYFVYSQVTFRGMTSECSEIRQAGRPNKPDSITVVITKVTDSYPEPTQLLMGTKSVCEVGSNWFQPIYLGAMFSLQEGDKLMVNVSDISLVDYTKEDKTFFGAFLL

T6: cynomolgus monkey TL1A, soluble, CHO-expressed, residues 72-251 of SEQ ID NO:248 with N-terminal His6-tag (cynomolgus monkey (Macaca fascicularis), UniProt O95150 72-251 (human entry))
T6 chain: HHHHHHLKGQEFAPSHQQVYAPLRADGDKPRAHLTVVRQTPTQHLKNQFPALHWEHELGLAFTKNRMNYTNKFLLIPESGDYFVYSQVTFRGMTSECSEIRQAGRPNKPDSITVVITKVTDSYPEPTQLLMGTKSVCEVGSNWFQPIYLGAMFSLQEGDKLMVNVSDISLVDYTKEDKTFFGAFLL

T7: human TL1A, soluble, CHO-expressed, residues 72-251 of SEQ ID NO:244 with N-terminal His6-tag (human, UniProt O95150 72-251)
T7 sequence: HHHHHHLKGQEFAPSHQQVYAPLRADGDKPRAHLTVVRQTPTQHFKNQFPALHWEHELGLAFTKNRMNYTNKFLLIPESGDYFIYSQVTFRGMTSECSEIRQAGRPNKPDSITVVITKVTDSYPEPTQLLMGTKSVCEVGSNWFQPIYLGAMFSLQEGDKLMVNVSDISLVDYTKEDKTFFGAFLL


How the values were obtained:
[1] = biological target: T1, cynomolgus monkey TL1A, soluble, E. …; assay: SPR 25C, mAb captured
Procedure, shortened: (§1)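 Biacore T100 SPR with captured mAb and soluble TL1A/Fhm analyte; ka and kd fitted to a 1:1 model assuming monomeric TL1A. KD = kd/ka; t1/2 (min) = ln2/(60·kd).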

[2] = biological target: T2, Fhm, hTL1A(Q167R), soluble, E. …; assay: SPR 25C, mAb captured
Procedure, shortened: as §1

[3] = biological target: T3, full length human TL1A expressed on …; assay: cell-based or functional assay
[4] = biological target: T4, full-length Fhm, human TL1A(Q167R), …; assay: cell-based or functional assay
[5] = biological target: T5, full-length cynomolgus monkey TL1A …; assay: cell-based or functional assay
[6] = biological target: T1, cynomolgus monkey TL1A, soluble, E. …; assay: cell-based or functional assay
[7] = biological target: T6, cynomolgus monkey TL1A, soluble, …; assay: cell-based or functional assay
[8] = biological target: T7, human TL1A, soluble, CHO-expressed, …; assay: cell-based or functional assay

Row | Binder | Kd [1] [nM] | t1/2 [1] [h] | Kd [2] [nM] | t1/2 [2] [h] | IC50, reporter + 10,000 TL1A cells [3] [nM] | IC50, reporter + 10,000 TL1A cells [4] [nM] | IC50, reporter + 10,000 TL1A cells [5] [nM] | IC50, NFkB-luciferase reporter [6] [nM] | IC50, NFkB-luciferase reporter [7] [nM] | IC50, IFN-g release, average of donors [8] [nM] | IC50, IFN-g release, donor D1 [8] [nM] | IC50, IFN-g release, donor D2 [8] [nM] | IC50, IFN-g release, donor D3 [8] [nM] | IC50, IFN-g release, donor D4 [8] [nM] | IC50, IFN-g release, donor D5 [8] [nM] | IC50, IFN-g release, donor D6 [8] [nM] | IC50, IFN-g release, donor D7 [8] [nM] | IC50, IFN-g release, donor D8 [8] [nM] | IC50, IFN-g release, donor D9 [8] [nM] | IC50, IFN-g release, donor D10 [8] [nM] | further results
1 | H4H1750P (antibody, human IgG4 S228P, V domains shown) VH: QVQLVESGGGVVQPGRSLRLSCVASGFTFSNYGMHWVRQAPGKGLEWVAVISYDGNNDLYSDSVKGRFTISRDNAKNALSLQMTSLRAEDTAVYYCARDSTMTPYYYHGIDVWGQGTTVTVSA VL: DIQMTQSPSSLSASVGDRVTITCRASQDIRNDLGWYQQKPGKAPKRLIYAASSLQSGVPSRFSGSGSGTDFTLTISSLQPEDFATYYCLQHNSYPPTFGQGTKVEIK | 52.7 | 0.0667 | 0.204 | 10.4 | 12.8 | 29.5 | 107 | 32.5 | 155 |  |  |  |  |  |  |  |  |  |  |  | 
2 | H4H1738P (antibody, human IgG4 S228P, V domains shown) VH: EVQLVESGGALVKPGGSLRLSCAVSGFTFINDWMNWVRQAPGKGLEWVGRIKSTTDGGTTDDAAPVKGRFTISRDDSKNTLYLQMNSLKTEDTAVYYCTRDRNRQRNYFYDGMDVWGQGTTVTVSA VL: DIVMTQSPVSLPVTPGEPASISCRSSQRLLHNNGNNYLDWYLQKPGQSPQLLIYLGSNRASGVPDRFSGSGSGTDFTLKVSRVEAEDVGVYYCMQALQTPYTFGQGTKLEIK | 1.36 | 0.3 | 1.02 | 0.317 | 7.47 | 7.75 | 20.2 | 0.07 | 0.39 |  |  |  |  |  |  |  |  |  |  |  | 

Binders with a lower Kd [1], results first:

Row | Kd [1] [nM] | t1/2 [1] [h] | Kd [2] [nM] | t1/2 [2] [h] | IC50, reporter + 10,000 TL1A cells [3] [nM] | IC50, reporter + 10,000 TL1A cells [4] [nM] | IC50, reporter + 10,000 TL1A cells [5] [nM] | IC50, NFkB-luciferase reporter [6] [nM] | IC50, NFkB-luciferase reporter [7] [nM] | IC50, IFN-g release, average of donors [8] [nM] | IC50, IFN-g release, donor D1 [8] [nM] | IC50, IFN-g release, donor D2 [8] [nM] | IC50, IFN-g release, donor D3 [8] [nM] | IC50, IFN-g release, donor D4 [8] [nM] | IC50, IFN-g release, donor D5 [8] [nM] | IC50, IFN-g release, donor D6 [8] [nM] | IC50, IFN-g release, donor D7 [8] [nM] | IC50, IFN-g release, donor D8 [8] [nM] | IC50, IFN-g release, donor D9 [8] [nM] | IC50, IFN-g release, donor D10 [8] [nM] | Binder | further results
3 | 0.141 | 3.68 | 0.115 | 3.77 | 0.76 | 2.12 | 4.28 | 0.03 | 0.05 |  |  |  |  |  |  |  |  |  |  |  | H4H1745P (antibody, human IgG4 S228P, V domains shown) VH: EVQLVESGGGLVQPGGSLRLSCAASGFTFSSYAMTWVRQAPGKGLEWVSGVSGRGGSTYYADSVKGRFTISRDNSKNTLYLQMNSLRAEDTAVYYCAYWDISSFDYWGQGTLVTVSS VL: DIQLTQSPSFLSASVGDRVTITCWASQGISTYLAWYQQKPGKTPKLLIYAASTLQSGVPSRFSGSGSGTDFTLTISSLQPEDFATYYCQQFNSYPLTFGGGTKVEIK | 
4 | 0.593 | 1.62 | 0.437 | 2.15 | 6.55 | 8.39 | 18.4 | 0.07 | 0.26 | 20 | 24 | 4.6 | 10 | 13 | 12 | 10 | 31 | 27 | 56 | 12 | H4H1742P (antibody, human IgG4 S228P, V domains shown) VH: EVQLVESGGGLVQPGGSLRLSCAASGFTFSNYVMNWVRQAPGKGLEWVSVISGSGGSTHYADSVKGRFTISRDNSKDALYLQMNSLRAEDTAVYYCAKGPLEAYYYYNGMDVWGQGTTVTVSS VL: DIQLTQSPSFLSASVGDRVTITCWASQAISSYLAWYQHKPGRAPKLLIYSTSTLQSGVPSRFSGSGSGTEFTLTISSLQPEDFATYYCQQLNSYPTFGQGTKLEIK | IC50, IFN-g release, donor D11 [8]: 27 nM; IC50, IFN-g release, donor D12 [8]: 14 nM
5 | 0.0637 | 4.87 | 0.0289 | 7.45 | 0.66 | 0.94 | 2.82 | 0.02 | 0.01 | 6.4 | 3.4 | 3.2 | 5.4 | 4.7 | 7 | 5.4 | 13 | 12 | 6.4 | 4.1 | H4H1725P (antibody, human IgG4 S228P, V domains shown) VH: QVQLVQSGAEVKKPGASVKVSCKASGYTFTGYYMHWVRQAPGQGLEWMGWIKPKSGGTNYVQKFQGRVTMTRDTSINTAYMELNNLKSDDTAVYYCATGGSQDASDFWGQGTMVTVSS VL: DIQMTQSPSSVSASVGGRVTITCRASQDISIWLAWYQQKPGKAPNLLIYAASSLQSGVPSRFSGSGSGTDFTLTISSLQPEDFATYYCQQADSFPLTFGGGTKVEIK | IC50, IFN-g release, donor D11 [8]: 6.1 nM; IC50, IFN-g release, donor D12 [8]: 6.4 nM
